In US20150010572A1 (SAMSUNG ELECTRONICS, published 2015):
Where a chain is given by its changes, count along the chain named.

T1: Ang-2 (R&D systems; 623-AN-025/CF) (human, UniProt O15123 19-496)
T1 sequence: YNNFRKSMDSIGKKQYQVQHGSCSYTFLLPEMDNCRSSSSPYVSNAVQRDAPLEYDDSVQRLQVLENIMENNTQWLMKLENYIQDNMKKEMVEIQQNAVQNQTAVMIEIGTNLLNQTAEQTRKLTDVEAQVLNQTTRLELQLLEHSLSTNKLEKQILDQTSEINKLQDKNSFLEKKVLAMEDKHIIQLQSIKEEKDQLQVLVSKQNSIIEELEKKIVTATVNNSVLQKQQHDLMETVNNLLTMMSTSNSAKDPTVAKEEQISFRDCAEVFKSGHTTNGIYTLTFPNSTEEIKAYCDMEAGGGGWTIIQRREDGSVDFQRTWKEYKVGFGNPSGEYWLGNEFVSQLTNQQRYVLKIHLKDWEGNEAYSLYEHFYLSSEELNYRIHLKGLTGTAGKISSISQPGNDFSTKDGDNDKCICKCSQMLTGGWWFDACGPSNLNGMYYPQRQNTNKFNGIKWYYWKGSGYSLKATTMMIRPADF

T2: mutant Ang-2 protein, I434 substituted with alanine (FLAG-tagged at N-terminal) (human, UniProt O15123 281-496, limits assumed)
T2 construct: also called 1434
T2 chain: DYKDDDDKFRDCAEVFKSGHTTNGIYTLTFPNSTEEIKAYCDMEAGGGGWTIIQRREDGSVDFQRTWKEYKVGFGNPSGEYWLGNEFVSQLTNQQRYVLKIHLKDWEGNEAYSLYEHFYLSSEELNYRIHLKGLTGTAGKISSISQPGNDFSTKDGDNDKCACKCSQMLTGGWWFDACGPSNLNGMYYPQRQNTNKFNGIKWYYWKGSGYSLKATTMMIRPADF

T3: mutant Ang-2 protein, D448 substituted with alanine (FLAG-tagged at N-terminal) (human, UniProt O15123 281-496, limits assumed)
T3 chain: T2 chain with A162I, D176A

T4: mutant Ang-2 protein, K468 substituted with alanine (FLAG-tagged at N-terminal) (human, UniProt O15123 281-496, limits assumed)
T4 chain: T2 chain with A162I, K196A

T5: mutant Ang-2 protein, S417 substituted with alanine (FLAG-tagged at N-terminal) (human, UniProt O15123 281-496, limits assumed)
T5 chain: T2 chain with S145A, A162I

T6: mutant Ang-2 protein, P419 substituted with alanine (FLAG-tagged at N-terminal) (human, UniProt O15123 281-496, limits assumed)
T6 chain: T2 chain with P147A, A162I

B1: SAIT-Ang-2-AB-m8B3 (antibody, V domains shown)
VH: DVQLQESGPGLVKPSQSLSLSCTVTGYSIASDYAWNWIRQFPGNKVEWMGYINYRGNTDYNPSLKSRSSINRDTSKNQFFLQLNSVTTGDTATYYCARGNFEGAMDYWGQGTSVTVSS
VL: TIVMTQTPKFLLVSAGDRITITCKASQSVSNDVAWYQQKPGQSPKLLIYYASNRYPGVPDRFTGSGYGTDFTFTISTVQAEDLAVYFCQQDYTSPWTFGGGTELEIK
notes: also called KCLRF-BP-00293
B2: SAIT-Ang-2-AB-m2E7 (antibody, V domains shown)
VH: DLQLQESGPGLVKPSQSLSLTCTVTGYSITSDYAWNWIRQFPGNKLEWMGYISYSGSTSYNPSLKSRISITRDTSKNQFFLQLNSLTTEDTATYYCARGDYGNYVGPMDYWGQGTSVTVSS
VL: B1 VL with T1S, I19V, Q37R, P56T, T93S, W96L, G100A, G101R, E103K, I106L
notes: also called KCLRF-BP-00294

Legend:
[1] = target: T1, Ang-2 (R&D systems; 623-AN-025/CF); experiment: cell-based or functional assay
[2] = target: T2, mutant Ang-2 protein, I434 substituted …; experiment: ELISA, antibody coated, 250 ng FLAG-tagged mutant Ang-2, anti-FLAG-HRP, OD450 relative to native Ang-2
Description: (§1) Each well of a 96-well MaxiSorp™ flat-bottom plate (Nunc) was coated with 50 ul (microliter) of 1000 nM antibodies (Example 2). Then, the plate was washed five times with a 0.05% (v/v) Tween-20 containing PBS (PBST) and blocked with a 1% (v/v) BSA containing PBS at a room temperature for 2 hours. 250 ng of each mutant Ang-2 protein obtained by substituting S417, Q418, P419, N421, 1434, D448, A449, P452, Y460, N467, K468, or F469 residue of Ang-2 protein tagged with a FLAG sequence ([…], Sigma) at its N-terminal with alanine was added to each well of the plate, which was then allowed to react at a room temperature for 2 hours.
(§2) The plate was washed five times with a 0.05% (v/v) Tween-20 containing PBS, reacted with an anti-FLAG antibody (SIGMA) conjugated with HRP which was diluted in a 1% (v/v) BSA containing PBS at a ratio of 1:5,000 (v/v) at a room temperature for 1 hour, and washed five times with a 0.1% (v/v) Tween-20 containing PBS.
(§3) Finally, 50 ul of TMB substrates (Cell signaling) was added to each well of the plate to induce color development reaction at a room temperature for 3 min. and the reaction was ceased by the addition of 50 ul of Stop solution (Cell signaling) and then, OD450 values were measured on a plate reader (Molecular Devices). By comparing binding affinities with mutated Ang-2 to those of unmutated Ang-2, each epitope of Ang-2 antibodies was identified. The thus obtained measurement results of the binding affinities (%) of mutant Ang-2 against the binding affinity of the native Ang-2 are shown in the following Table 9.

[3] = target: T3, mutant Ang-2 protein, D448 substituted …; experiment: as above
Description: as §1, §2, §3

[4] = target: T4, mutant Ang-2 protein, K468 substituted …; experiment: as above
Description: as §1, §2, §3

[5] = target: T5, mutant Ang-2 protein, S417 substituted …; experiment: as above
Description: as §1, §2, §3

[6] = target: T6, mutant Ang-2 protein, P419 substituted …; experiment: as above
Description: as §1, §2, §3

Binder	Ang-2-depedent Cell Adhesion Degree (%) [1]	% at RBD binding (mutant Ang-2 against native Ang-2) [2]	% at RBD binding (mutant Ang-2 against native Ang-2) [3]	% at RBD binding (mutant Ang-2 against native Ang-2) [4]	% at RBD binding (mutant Ang-2 against native Ang-2) [5]	% at RBD binding (mutant Ang-2 against native Ang-2) [6]
B1	23.6%	99.4%	96.1%	105%	95.4%	8.7%
B2	28.1%	102%	96.9%	101%	98.3%	88.6%
